Experimental data: US20210269521A1 (L AND L BIOPHARMA, published 2021)

Experiments:
[1] = molecular target: T1, human TIM-3 extracellular domain-human IgG1 Fc fusion protein (human, UniProt Q8TDQ0 22-199); test: ELISA; pH 5.5, 37°C 5 days
T1 construct: Made in house or bought (ACROBiosystems TM3-H5258); also called TIM-3-hFc; not shown: human IgG1 Fc

[2] = molecular target: T2, human PD-1 extracellular domain protein expressed in Example 1 (tag not stated) (human, UniProt Q15116 25-170); test: ELISA; pH 5.5, 37°C 5 days
T2 construct: extracellular domain; also called PD-1 protein; not shown: human IgG1 Fc or his tag

[3] = molecular target: T1, human TIM-3 extracellular domain-human …; test: ELISA; pH 5.5, 40°C 10 days
[4] = molecular target: T2, human PD-1 extracellular domain protein …; test: ELISA; pH 5.5, 40°C 10 days
[5] = molecular target: T1, human TIM-3 extracellular domain-human …; test: ELISA; PBS, 0 day, against 0 day
[6] = molecular target: T2, human PD-1 extracellular domain protein …; test: ELISA; PBS, 0 day, against 0 day
[7] = molecular target: T1, human TIM-3 extracellular domain-human …; test: ELISA; pH 6.0, 0 day, against 0 day
[8] = molecular target: T2, human PD-1 extracellular domain protein …; test: ELISA; pH 6.0, 0 day, against 0 day
[9] = molecular target: T1, human TIM-3 extracellular domain-human …; test: ELISA; preparation buffer, 37°C 7 days
[10] = molecular target: T2, human PD-1 extracellular domain protein …; test: ELISA; preparation buffer, 37°C 7 days
[11] = molecular target: T1, human TIM-3 extracellular domain-human …; test: ELISA; 15 mg/mL in PBS, 37°C 0 day (-80°C)
[12] = molecular target: T2, human PD-1 extracellular domain protein …; test: ELISA; 15 mg/mL in PBS, 37°C 0 day (-80°C)
[13] = molecular target: T1, human TIM-3 extracellular domain-human …; test: ELISA; preparation buffer, 0 day, against 0 day
[14] = molecular target: T2, human PD-1 extracellular domain protein …; test: ELISA; preparation buffer, 0 day, against 0 day
[15] = molecular target: T1, human TIM-3 extracellular domain-human …; test: ELISA; preparation buffer, 37°C 7 days, against 0 day
[16] = molecular target: T2, human PD-1 extracellular domain protein …; test: as above
[17] = molecular target: T2, human PD-1 extracellular domain protein …; test: ELISA, EC50 of bispecific over EC50 of the monoclonal control
Method: After washing the microplate 5 times with PBST, 50 μl/well TMB chromogenic substrate (KPL, 52-00-03) was added to the microplate, followed by incubating at room temperature for 10-15 min.
PD-1 expressed in Example 1 was diluted to a concentration of 1 μg/ml with PBS buffer, pH 7.4, and added to a 96-well microplate (Corning, CLS3590-100EA) at 50 μl per well, thereby incubating in an incubator at 37° C. for 2 hours. After discarding the liquid, a blocking solution of 5% skimmed milk (Shanghai Shenggong Biological Engineering Co., Ltd., A600669-0250) diluted with PBS was added at 200 μl per well, followed by incubating at 37° C. for 3 hours or 4° C. overnight (16-18 hours)) for blocking. Subsequently, the blocking solution was discarded, and the microplate was washed 5 times with PBST buffer (pH 7.4 PBS containing 0.05% tween-20). […] Subsequently, the microplate was washed 5 times with PBST, then 50 μl/well of 1:2500 diluted HRP-labeled secondary antibody (Jackson Immuno Research, 115-035-003) was added, thereby incubating at 37° C. for 1 hour. After washing the microplate 5 times with PBST, 50 μl/well TMB chromogenic substrate (KPL, 52-00-03) was added, then incubated at room temperature for 5-10 min. Finally, 50 μl/well of 1M H₂SO₄ was added to stop the reaction. […] Go microplate reader (ThermoFisher, 51119200) was used to read the absorption value at 450 nm and the EC50 based on the OD value was calculated.

[18] = molecular target: T1, human TIM-3 extracellular domain-human …; test: ELISA; 15 mg/mL in preparation buffer (20 mM His pH 6.0), 37°C 0 day (-80°C)
[19] = molecular target: T2, human PD-1 extracellular domain protein …; test: as above
[20] = molecular target: T3, TIM-3-hFc (Acro biosystems, 22-142) (human, UniProt Q8TDQ0 22-142); test: double-sandwich ELISA: TIM-3-hFc coated, LB141 titrated, detected with PD-1-his and anti-his-HRP
T3 construct: Bought; not shown: human Fc (hFc)

- EC50 [1]: 0.334 nM
- EC50 [2]: 0.217 nM
- EC50 [3]: 0.373 nM
- EC50 [4]: 0.215 nM
- Fold change of EC50 [5]: 1 ratio
- Fold change of EC50 [6]: 1 ratio
- Fold change of EC50 [7]: 1 ratio
- Fold change of EC50 [8]: 1 ratio
- EC50 [9]: 0.325 nM
- EC50 [10]: 0.331 nM
- EC50 [11]: 0.253 nM
- EC50 [12]: 0.293 nM
- Fold change of EC50 [13]: 1 ratio
- Fold change of EC50 [14]: 1 ratio
- Fold change of EC50 [15]: 1.07 ratio
- Fold change of EC50 [16]: 0.86 ratio
- Multiple of EC50 variation [17]: 1.32 ratio
- EC50 [18]: 0.303 nM
- EC50 [19]: 0.378 nM
- EC50 [20]: 0.931 nM
B1: bispecific antibody LB141 (bispecific antibody, human IgG4 S228P, kappa)
light: EIVLTQSPATLSLSPGERATLSCRASKGVSTSGYSYLHWYQQKPGQAPRLLIYLASYLESGVPARFSGSGSGTDFTLTISSLEPEDFAVYYCQHSRDLPLTFGGGTKVEIKRTVAAPSVFIFPPSDEQLKSGTASVVCLLNNFYPREAKVQWKVDNALQSGNSQESVTEQDSKDSTYSLSSTLTLSKADYEKHKVYACEVTHQGLSSPVTKSFNRGEC
heavy: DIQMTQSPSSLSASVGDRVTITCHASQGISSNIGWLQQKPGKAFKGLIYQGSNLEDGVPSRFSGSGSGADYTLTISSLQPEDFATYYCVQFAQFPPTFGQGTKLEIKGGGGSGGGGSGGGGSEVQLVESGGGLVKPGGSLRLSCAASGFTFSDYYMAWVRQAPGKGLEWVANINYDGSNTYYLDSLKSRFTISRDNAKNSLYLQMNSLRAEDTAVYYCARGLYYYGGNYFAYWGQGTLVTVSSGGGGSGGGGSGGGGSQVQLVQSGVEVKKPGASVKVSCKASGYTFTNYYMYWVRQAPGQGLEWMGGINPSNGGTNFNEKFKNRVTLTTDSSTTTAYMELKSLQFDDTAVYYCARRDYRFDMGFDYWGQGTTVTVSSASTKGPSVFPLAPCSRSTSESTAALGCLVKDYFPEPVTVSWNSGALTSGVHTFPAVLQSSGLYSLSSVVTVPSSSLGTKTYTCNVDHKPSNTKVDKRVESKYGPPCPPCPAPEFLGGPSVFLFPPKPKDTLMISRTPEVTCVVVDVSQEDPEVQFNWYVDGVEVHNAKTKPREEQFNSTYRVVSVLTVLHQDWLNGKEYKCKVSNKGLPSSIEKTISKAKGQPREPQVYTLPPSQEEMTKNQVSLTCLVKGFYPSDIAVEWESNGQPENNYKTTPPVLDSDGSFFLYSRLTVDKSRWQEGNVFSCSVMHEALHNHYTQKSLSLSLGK
notes: ab6VL-(G4S)3-ab6VH-(G4S)3-PemVH-hIgG4 with PemVL-κ
